Source: patent publication US7226791B2, “Polynucleotides encoding novel guanylate binding proteins (GBP's)” (Bristol-Myers Squibb Company, priority 2003, dated 2007)

B1: GBP-5: known guanylate binding protein family member, myc-tagged, expressed in Cos-7 cells (protein, UniProt Q96PP8 1-583, looked up)
Guanylate-binding protein 5: MALEIHMSDPMCLIENFNEQLKVNQEALEILSAITQPVVVVAIVGLYRTGKSYLMNKLAGKNKGFSVASTVQSHTKGIWIWCVPHPNWPNHTLVLLDTEGLGDVEKADNKNDIQIFALALLLSSTFVYNTVNKIDQGAIDLLHNVTELTDLLKARNSPDLDRVEDPADSASFFPDLVWTLRDFCLGLEIDGQLVTPDEYLENSLRPKQGSDQRVQNFNLPRLCIQKFFPKKKCFIFDLPAHQKKLAQLETLPDDELEPEFVQQVTEFCSYIFSHSMTKTLPGGIMVNGSRLKNLVLTYVNAISSGDLPCIENAVLALAQRENSAAVQKAIAHYDQQMGQKVQLPMETLQELLDLHRTSEREAIEVFMKNSFKDVDQSFQKELETLLDAKQNDICKRNLEASSDYCSALLKDIFGPLEEAVKQGIYSKPGGHNLFIQKTEELKAKYYREPRKGIQAEEVLQKYLKSKESVSHAILQTDQALTETEKKKKEAQVKAEAEKAEAQRLAAIQRQNEQMMQERERLHQEQVRQMEIAKQNWLAEQQKMQEQQMQEQAAQLSTTFQAQNRSLLSELQHAQRTVNNDDPC
modifications: myc tag
B2: GBP-2: known guanylate binding protein family member, myc-tagged, expressed in Cos-7 cells (protein, UniProt P32456 1-588, looked up)
Guanylate-binding protein 2: MAPEINLPGPMSLIDNTKGQLVVNPEALKILSAITQPVVVVAIVGLYRTGKSYLMNKLAGKKNGFSLGSTVKSHTKGIWMWCVPHPKKPEHTLVLLDTEGLGDIEKGDNENDSWIFALAILLSSTFVYNSMGTINQQAMDQLHYVTELTDRIKANSSPGNNSVDDSADFVSFFPAFVWTLRDFTLELEVDGEPITADDYLELSLKLRKGTDKKSKSFNDPRLCIRKFFPKRKCFVFDWPAPKKYLAHLEQLKEEELNPDFIEQVAEFCSYILSHSNVKTLSGGIPVNGPRLESLVLTYVNAISSGDLPCMENAVLALAQIENSAAVEKAIAHYEQQMGQKVQLPTETLQELLDLHRDSEREAIEVFMKNSFKDVDQMFQRKLGAQLEARRDDFCKQNSKASSDCCMALLQDIFGPLEEDVKQGTFSKPGGYRLFTQKLQELKNKYYQVPRKGIQAKEVLKKYLESKEDVADALLQTDQSLSEKEKAIEVERIKAESAEAAKKMLEEIQKKNEEMMEQKEKSYQEHVKQLTEKMERDRAQLMAEQEKTLALKLQEQERLLKEGFENESKRLQKDIWDIQMRSKSLEPIC
modifications: myc tag
B3: FLJ10961: human guanylate binding protein HGBPBMY4, AA SEQ ID NO:9 (protein, listed as Homo sapiens)
chain: MAPEIHMTGPMCLIENTNGELVANPEALKILSAITQPVVVVAIVGLYRTGKSYLMNKLAGKNKGFSLGSTVKSHTKGIWMWCVPHPKKPEHTLVLLDTEGLGDVKKGDNQNDSWIFTLAVLLSSTLVYNSMGTINQQAMDQLYYVTELTHRIRSKSSPDENENEDSADFVSFFPDFVWTLRDFSLDLEADGQPLTPDEYLEYSLKLTQGNRKLAQLEKLQDEELDPEFVQQVADFCSYIFSNSKTKTLSGGIKVNGPCLESLVLTYINAISRGDLPCMENAVLALAQIENSAAVQKAIAHYDQQMGQKVQLPAETLQELLDLHRVSEREATEVYMKNSFKDVDHLFQKKLAAQLDKKRDDFCKQNQEASSDRCSALLQVIFSPLEEEVKAGIYSKPGGYCLFIQKLQDLEKKYYEEPRKGIQAEEILQTYLKSKESVTDAILQTDQILTEKEKEIEVECVKAESAQASAKMVEEMQIKYQQMMEEKEKSYQEHVKQLTEKMERERAQLLEEQEKTLTSKLQEQARVLKERCQGESTQLQNEIQKLQKTLKKKTKRYMSHKLKI
B4: GBP-1: known guanylate binding protein family member, myc-tagged, expressed in Cos-7 cells (protein, UniProt P32455 1-589, looked up)
Guanylate-binding protein 1: MASEIHMTGPMCLIENTNGRLMANPEALKILSAITQPMVVVAIVGLYRTGKSYLMNKLAGKKKGFSLGSTVQSHTKGIWMWCVPHPKKPGHILVLLDTEGLGDVEKGDNQNDSWIFALAVLLSSTFVYNSIGTINQQAMDQLYYVTELTHRIRSKSSPDENENEVEDSADFVSFFPDFVWTLRDFSLDLEADGQPLTPDEYLTYSLKLKKGTSQKDETFNLPRLCIRKFFPKKKCFVFDRPVHRRKLAQLEKLQDEELDPEFVQQVADFCSYIFSNSKTKTLSGGIQVNGPRLESLVLTYVNAISSGDLPCMENAVLALAQIENSAAVQKAIAHYEQQMGQKVQLPTETLQELLDLHRDSEREAIEVFIRSSFKDVDHLFQKELAAQLEKKRDDFCKQNQEASSDRCSALLQVIFSPLEEEVKAGIYSKPGGYRLFVQKLQDLKKKYYEEPRKGIQAEEILQTYLKSKESMTDAILQTDQTLTEKEKEIEVERVKAESAQASAKMLQEMQRKNEQMMEQKERSYQEHLKQLTEKMENDRVQLLKEQERTLALKLQEQEQLLKEGFQKESRIMKNEIQDLQTKMRRRKAC
modifications: myc tag
B5: 4843—1: human guanylate binding protein HGBPBMY2, AA SEQ ID NO:5 (protein, listed as Homo sapiens)
chain: MESGPKMLAPVCLVENNNEQLLVNQQAIQILEKISQPVVVAIVGLYRTGKSYLMNHLAGQNHGFPLGSTVQSETKGIWMWCVPHPSKPNHTLVLLDTEGLGDVEKGDPKNDSWIFALAVLLCSTFVYNSMSTINHQALEQLHYVTELTELIKAKSSPRPDGVEDSTEFVSFFPDFLWTVRDFTLELKLNGHPITEDEYLENALKLIQGNNPRVQTSNFPRECIRRFLPKRKCFVFDRPTNDKDLLANIEKVSEKQLDPKFQEQTNIFCSYIFTHARTKTLREGITVTGNRLGTLAVTYVEAINSGAVPCLENAVITLAQRENSAAVQRASDYYSQQMAQRVKFPTDTLQELLDVHAACEREAIAIFMEHSFKDENQEFQKKFMETTMNKKGDFLLQNEESSVQYCQAKLNELSKGLMESISAGSFSVPGGHKLYMETKERIEQDYWQVPRKGVKAKEVFQRFLESQMVIEESILQSDKALTDREKAVAVDRAKKEAAEKEQELLKQKLQEQQQQMEAQVKSRKENIAQLKEKLQMEREHLLREQIMMLEHTQKVQNDWLHEGFKKKYEEMNAEISQFKRMIDTTKNDDTPWIARTLDNLADELTAILSAPAKLIGHGVKGVSSLFKKHKLPFKGGRADPAFLYKVVDLEGPRFEQKLISEEDLNMHTGHHHHHH
B6: AK096141: human guanylate binding protein HGBPBMY1, AA SEQ ID NO:3 (protein, listed as Homo sapiens)
chain: MASEIHMPGPVCLIENTKGHLVVNSEALEILSAITQPVVVVAIVGLYRTGKSYLMNKLAGKNKGFPLGCTVKSETKGIWMWCVPHPSKPNHTLILLDTEGLGDMEKSDPKSDSWIFALAVLLSSSFVYNSMGTINHQALEQLHYVTELTELIRAKSCPRPDEVEDSSEFVSFFPDFIWTVRDFTLELKLDGHPITEDEYLENALKLISGKNPQIQNSNKPREWIRHFFPKQKCFVFDRPINDKKLLLHVEEVREDQLDSNFQMQSENFCSYIFTHAKTKTLREGILVTGNRLGMLVETYLDAINSGATPCLENAMAVLAQCENSAAVQRAANHYSQQMAQQVRFPTDTLQELLDVHAVCEREAIAVFMEYSFKDKSQEFQKKLVDTMEKKKEDFVLQNEEASAKYCQAELKRLSELLTESISRGTFFVPGGHNIYLEAKKKIEQDYTLVPRKGVKADEVLQSFLQSQVVIEESILQSDKALTAGEKAIAAKQAKKEAAEKEQELLRQKQKEQQQMMEAQERSFQENIAQLKKKMERERENYMRELRKMLSHKMKVLEELLTEGFKEIFESLNEEINRLKEQIEAAENEEPSVFSQILDVAGSIFIAALPGAAKLVDLGMKILSSLCNRLRNPGKKIIS

Experiments:
[1] = tested on: GBP-1; test: siRNA knockdown of GBP-1 protein expression in Cos-7 cells, myc western blot; assay type: cell-based; settings: Cos-7 cells co-transfected with GBP-1 expression vector, 40 nM siRNA duplex; FIG. 50A
Method: (§1) To test for knockdown of protein expression using siRNAs, Cos-7 cells were transfected as described herein with expression vectors encoding either GBP-1 or GBP-2 in the presence and absence of 40 nM siRNA duplex specific for either GBP-1 (“1–3”, […], (SEQ ID NO:79), Qiagen, Inc.) or GBP-2 (“582”, […] (SEQ ID NO:80), Sequitur Inc., Natick, Mass.). Approximately 18 hours following transfection, cells were harvested using trypsin, and lysed in RIPA buffer as described previously. Lysates were electrophoresed through 4–20% tris-glycine gels, transferred to nitrocellulose, blocked overnight with 5% non-fat dry milk and 0.3% BSA in Tris-buffered saline, and probed with a mouse monoclonal antibody specific for the myc epitope tag.

[2] = tested on: MCP-1; test: TNFα-induced MCP-1 expression in human umbilical vein endothelial cells, ELISA; assay type: cell-based; settings: HUVECs, 100 nM siRNA duplexes, 6 hours 10 ng/ml TNFα; FIG. 50B
Method: (§2) In some experiments, human umbilical vein endothelial cells (HUVECs, Clonetics Corp., San Diego, Calif., USA) were transfected using lipofectamine 2000 with 100 nM siRNA duplexes. Cells were cultured overnight, and then stimulated for 6 hours with 10 ng/ml TNFα. Supernatants were analyzed for MCP-1 and IL-8 levels by ELISA (Pharmingen, San Diego, Calif., USA). Cytokine levels were corrected for cell number using the CELL TITER kit (Promega).

[3] = tested on: IL-8; test: TNFα-induced IL-8 secretion in human umbilical vein endothelial cells, ELISA; assay type: cell-based; settings: HUVECs, 100 nM siRNA duplexes, 6 hours 10 ng/ml TNFα
Method: as §2

[4] = tested on: GBP-2; test: siRNA knockdown of GBP-2 protein expression in Cos-7 cells, myc western blot; assay type: cell-based; settings: Cos-7 cells co-transfected with GBP-2 expression vector, 40 nM siRNA duplex; FIG. 50A
Method: as §1

[5] = Guanine nucleotide binding: Cos-7 lysates on agarose coated with GTP, myc western blot; settings: myc-tagged protein expressed in Cos-7 cells; FIG. 49
Method: (§3) Genes encoding different GBP family members were cloned into the vector pcDNA3.1mychis (Invitrogen) for expression in mammalian cells. Cos-7 cells were transfected with 5 μg of DNA per group using lipofectamine 2000 (Invitrogen) according to manufacturer's instructions. Approximately 18 hours after transfection, the cells were harvested using trypsin and lysed in RIPA buffer (10 mM sodium phosphate pH 7.2, 0.25 M sodium chloride, 0.1% SDS, 1% NP40, 1% sodium deoxycholate, 2 mM EDTA, protease inhibitor cocktail). An aliquot of the lysate was reserved for the whole cell lysate sample. The remainder was divided in thirds, and incubated for three hours at 4° C. with agarose coated with either GTP, GDP, or GMP (Sigma Chemical Company). The beads were pelleted, washed with buffer (0.1% NP40, 150 mM NaCl, 50 mM Tris pH7.5), and resuspended in SDS sample buffer. Samples were electrophoresed through 4–20% tris-glycine gels, transferred to nitrocellulose, blocked overnight with 5% non-fat dry milk and 0.3% BSA in Tris-buffered saline, and probed with a mouse monoclonal antibody specific for the myc epitope tag (Invitrogen).

[6] = Guanine nucleotide binding: Cos-7 lysates on agarose coated with GDP, myc western blot; settings: myc-tagged protein expressed in Cos-7 cells; FIG. 49
Method: as §3

[7] = Guanine nucleotide binding: Cos-7 lysates on agarose coated with GMP, myc western blot; settings: myc-tagged protein expressed in Cos-7 cells; FIG. 49
Method: as §3

Molecule | knockdown of GBP-1 protein expression [1] | inhibition of TNFα-induced MCP-1 expression [2] | inhibition of IL-8 secretion [3] | knockdown of GBP-2 protein expression [4] | binding to GTP agarose beads [5] | binding to GDP agarose beads [6] | binding to GMP agarose beads [7]
GCUCGAGAAACUACAAGAUTT, (SEQ ID NO:79) [1–3] | specific knockdown | 70% | failed to inhibit |  |  |  | 
UUUGUAUUUCCUCCAACAUTT (SEQ ID NO:80) (chemistry not given here; listed as Homo sapiens) [Compound 582] |  | approximately 40% | failed to inhibit | specific knockdown |  |  | 
B1 |  |  |  |  | weakly | bound well | bound well
B2 |  |  |  |  | bound well | bound well | bound well
B3 |  |  |  |  | weakly | bound well | bound well
B4 |  |  |  |  | bound well | bound well | bound well
B5 |  |  |  |  | did not bind | did not bind | did not bind
B6 |  |  |  |  | not at all | bound weakly | bound weakly
